Data as given in US20240101635A1 (AKSTON BIOSCIENCES, published 2024).
Numbering of substitutions follows the chain as printed. Names may count otherwise. Like-named read-outs stand apart in the source and are kept apart here. One block for each binder: values may come before it.

Legend:
biotinylated canine FcRn = biotinylated canine FcRn (canine, UniProt A0A8I3PFR8 25-347, biotinylated (site not stated)); experiment: ELISA pH 5.5, fusion protein coated, biotinylated canine FcRn titrated
Method: Insulin-Fc fusion proteins comprising Fc fragments of canine or feline origin were diluted to 10 μg/ml in sodium bicarbonate pH 9.6 buffer and coated in duplicate on Maxisorb ELISA plate strips for 1-2 hours at RT. The strips were then washed 4 times with PBST (PBS/0.1% Tween-20) buffer and blocked with Superblock blocking reagent (ThermoFisher). Strips for FcRn binding were then washed again twice with pH 5.5 MES/NaCl/Tween (50 mM MES/l50 mM NaCl/0.1% Tween-20) buffer before addition of the FcRn reagent (biotinylated canine FcRn; Immunitrack). […] Serial dilutions (1:3× dilutions) of biotinylated FcRn reagent were prepared in pH 5.5 MES/NaCl/Tween/10% Superblock buffer at concentrations from 1000 ng/ml to 0.45 ng/ml and loaded at 100 μL/well using a multichannel pipettor onto the strips coated with the insulin-Fc fusion protein compounds. The assay plate was then incubated for 1 hour at room temperature. FcRn binding strips were washed 4 times with pH 5.5 MES/NaCl/Tween buffer and then loaded with 100 μl/well […] diluted 1:10000 in pH 5.5 MES/NaCl/10% Superblock buffer. After incubating for 45 minutes, strips were washed again 4 times with pH 5.5 MES/NaCl/Tween buffer. TMB was finally added to reveal the bound biotinylated-canine FcRn reagent, and the color development was stopped with the ELISA stop reagent. The plate was read in an ELISA plate reader at a wavelength of 450 nm. The OD values (proportional to the binding of canine-FcRn to the insulin-Fc fusion protein test compounds) were plotted against log concentrations of FcRn added to each well to generate binding curves using GraphPad Prism software. EC50 values for each binding curve were calculated to compare between different compounds.

human insulin receptor [1] = molecular target: T1, human insulin receptor (human, UniProt P06213 28-1382); experiment: competition with biotinylated RHI on IM-9 cells, flow cytometry, 4 C
T1 construct: whole, on cells; Endogenous receptor on IM-9 cells; also called IR
T1 sequence (P06213 28-1382): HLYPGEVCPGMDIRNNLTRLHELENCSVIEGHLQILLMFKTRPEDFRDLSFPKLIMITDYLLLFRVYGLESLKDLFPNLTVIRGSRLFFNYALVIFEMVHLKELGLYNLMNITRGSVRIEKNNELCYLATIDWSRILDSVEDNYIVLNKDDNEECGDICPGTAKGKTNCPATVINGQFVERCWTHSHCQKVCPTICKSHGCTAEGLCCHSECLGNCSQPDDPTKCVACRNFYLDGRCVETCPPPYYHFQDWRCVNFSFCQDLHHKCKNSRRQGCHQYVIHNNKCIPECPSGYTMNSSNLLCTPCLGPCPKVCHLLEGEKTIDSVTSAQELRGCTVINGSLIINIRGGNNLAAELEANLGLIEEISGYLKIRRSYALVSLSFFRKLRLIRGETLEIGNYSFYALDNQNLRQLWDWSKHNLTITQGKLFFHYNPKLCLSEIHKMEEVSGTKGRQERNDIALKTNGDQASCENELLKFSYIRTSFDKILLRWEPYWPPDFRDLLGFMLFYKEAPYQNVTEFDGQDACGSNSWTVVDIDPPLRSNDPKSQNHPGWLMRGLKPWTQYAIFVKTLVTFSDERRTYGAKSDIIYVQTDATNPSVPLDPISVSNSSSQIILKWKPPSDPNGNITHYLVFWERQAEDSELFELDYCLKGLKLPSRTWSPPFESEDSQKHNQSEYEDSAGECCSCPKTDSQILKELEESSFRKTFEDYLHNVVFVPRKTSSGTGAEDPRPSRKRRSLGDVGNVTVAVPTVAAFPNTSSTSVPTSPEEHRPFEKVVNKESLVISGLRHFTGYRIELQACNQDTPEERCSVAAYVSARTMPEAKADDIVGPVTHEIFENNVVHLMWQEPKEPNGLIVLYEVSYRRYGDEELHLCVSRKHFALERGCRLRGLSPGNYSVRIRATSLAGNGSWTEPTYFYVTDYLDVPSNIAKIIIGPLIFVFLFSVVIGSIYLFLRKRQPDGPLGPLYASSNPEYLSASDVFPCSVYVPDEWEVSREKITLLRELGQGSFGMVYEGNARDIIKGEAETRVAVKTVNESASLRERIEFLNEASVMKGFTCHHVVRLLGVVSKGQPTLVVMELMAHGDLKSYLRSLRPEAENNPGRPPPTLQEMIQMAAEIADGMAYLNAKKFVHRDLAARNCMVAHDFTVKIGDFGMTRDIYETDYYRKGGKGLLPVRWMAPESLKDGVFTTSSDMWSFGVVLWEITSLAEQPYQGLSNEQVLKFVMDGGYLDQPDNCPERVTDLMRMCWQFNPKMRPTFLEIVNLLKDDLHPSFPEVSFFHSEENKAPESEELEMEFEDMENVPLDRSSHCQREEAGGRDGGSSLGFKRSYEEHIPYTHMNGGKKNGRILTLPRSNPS

[2] = molecular target: T2, biotinylated recombinant human Fc(gamma) receptor I (human, UniProt P12314 16-288, biotinylated (site not stated)); experiment: ELISA, fusion protein coated, biotinylated rhFc(gamma)RI in solution, pH 7.4
T2 construct: Bought reagent, used as surrogate for canine/feline Fc(gamma)RI; also called rhFc(gamma) receptor I; Fc(gamma)RI
T2 sequence (P12314 16-288 limits assumed): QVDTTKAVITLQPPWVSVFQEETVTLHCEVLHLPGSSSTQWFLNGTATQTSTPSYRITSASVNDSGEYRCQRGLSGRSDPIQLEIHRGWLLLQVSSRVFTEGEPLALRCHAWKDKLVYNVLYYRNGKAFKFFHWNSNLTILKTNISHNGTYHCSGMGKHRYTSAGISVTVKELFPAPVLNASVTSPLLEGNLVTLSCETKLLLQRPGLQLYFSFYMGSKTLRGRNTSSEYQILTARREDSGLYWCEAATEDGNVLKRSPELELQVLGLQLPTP
Method: (§1) The binding of insulin-Fc fusion proteins to the Fc(gamma) receptor I at pH 7.4 was conducted using an ELISA assay as follows. Since neither canine nor feline Fc(gamma) receptor I was not commercially available, human Fc(gamma) receptor I (i.e., rhFc(gamma) receptor I) was used as a surrogate mammalian receptor. Insulin-Fc compounds were diluted to 10 μg/mL in sodium bicarbonate buffer at pH 9.6 and coated on Maxisorp (Nunc) microtiter plates overnight at 4° C., after which the microplate strips were washed 5 times with PBST (PBS/0.05% Tween-20) buffer and blocked with Superblock blocking reagent (ThermoFisher). Serial dilutions of biotinylated rhFc(gamma) receptor I (recombinant human Fc(gamma)R-I; R&D Systems) were prepared in PBST/10% Superblock buffer from 6000 ng/mL to 8.2 ng/mL and loaded at 100 μL/well onto the microplate strips coated with insulin-Fc fusion protein. The microtiter plate was incubated for 1 hour at room temperature after which the microplate strips were washed 5 times with PBST and then loaded with 100 μL/well of streptavidin-HRP diluted 1:10000 in PBST/10% Superblock buffer. After incubating for 45 min, the microplate strips were washed again 5 times with PBST. TMB was added to reveal the bound Fc(gamma) receptor I proteins and stopped with ELISA stop reagent (Boston Bioproducts). The plate was read in an ELISA plate reader at 450 nm, and the OD values (proportional to the binding of rhFc(gamma) receptor I to insulin-Fc protein) were plotted against log concentrations of rhFc(gamma) receptor I added to each well to generate binding curves using GraphPad Prism software.
The insulin-Fc fusion protein of SEQ ID NO: 40 was synthesized in HEK293 cells according to the procedure of Example 1 and purified using a Protein A column according to Example 3. The structure of the insulin-Fc fusion protein was confirmed according to Example 4 by non-reducing and reducing CE-SDS, and the sequence was further identified by LC-MS with glycan removal according to Example 5. The protein yield was 174 mg/L at this stage. The % homodimer for the sequence was measured by size-exclusion chromatography according to Example 6 and was determined to be 98.9% resulting in a homodimer titer of 172 mg/L which meets the manufacturing design criteria.

human insulin receptor [3] = molecular target: T1, human insulin receptor; experiment: competition with biotinylated RHI on IM-9 cells, flow cytometry, 4 C; remark: listed apart in the source
Method: (§2) 40 μL of an IM-9 cell suspension (8×10⁶ cells/mL) was then added to each well by multichannel pipette, mixed again gently and incubated on ice for 30 min to allow competitive binding on the insulin receptor on IM-9 cells. Cells were then washed twice with 275 μL of ice-cold FACS wash buffer (HBSS/2 mM EDTA/0.1% Na-azide+0.5% horse serum) by centrifuging the V-bottom plate at 3000 rpm for 3 min and aspirating the supernatant. Cells were then resuspended in 40 μL of FACS staining medium containing 1:100 diluted Streptavidin-PE (Life Technologies) for 20 min on ice. Cells were then washed once with 275 μL of ice-cold FACS buffer and finally fixed with 3% paraformaldehyde for 10 min at room temp. Cells were then washed once with 275 μL of ice-cold FACS buffer and resuspended in 250 μl of FACS buffer for analysis.
(§3) The V-bottom plates containing cells were then analyzed on a Guava 8-HT flow cytometer (Millipore). Biotinylated-RHI binding to insulin receptor was quantitated by the median fluorescence intensity (MFI) of the cells on the FACS FL-2 channel for each concentration of the test compound. Control wells were labeled only with biotinylated-RHI and were used to calculate the percent (%) inhibition resulting from each test compound concentration. The % inhibition by test compounds of biotinylated-RHI binding on IM-9 cells was plotted against log concentrations of the test compound, and the resulting IC50 values were calculated using GraphPad Prism (GraphPad Software, La Jolla, CA) for the test compounds. Lower IC50 values of the test compound therefore indicate greater levels of biotinylated-RHI inhibition at lower concentrations indicating stronger binding of the insulin-Fc fusion protein to the insulin receptor. A control compound, such as unlabeled recombinant human insulin (RHI) was also used as an internal standard to generate an RHI IC50 against which a given compound IC50 could be ratioed (IC50(compound)/IC50(RHI)). Lower IC50 ratios have more similar binding to RHI (stronger binding to insulin receptor), while higher IC50 ratios have weaker binding to the insulin receptor relative to RHI.

human insulin receptor [4] = molecular target: T1, human insulin receptor; experiment: as above; remark: listed apart in the source
Method: as §2, §3

[5] = molecular target: T2, biotinylated recombinant human …; experiment: ELISA, fusion protein coated, biotinylated rhFc(gamma)RI in solution, pH 7.4; remark: listed apart in the source
Method: as §1
Low Fc(gamma) receptor binding is most likely to correlate with minimum immunogenicity.

Chain of biotinylated canine FcRn (A0A8I3PFR8 entry or part of it): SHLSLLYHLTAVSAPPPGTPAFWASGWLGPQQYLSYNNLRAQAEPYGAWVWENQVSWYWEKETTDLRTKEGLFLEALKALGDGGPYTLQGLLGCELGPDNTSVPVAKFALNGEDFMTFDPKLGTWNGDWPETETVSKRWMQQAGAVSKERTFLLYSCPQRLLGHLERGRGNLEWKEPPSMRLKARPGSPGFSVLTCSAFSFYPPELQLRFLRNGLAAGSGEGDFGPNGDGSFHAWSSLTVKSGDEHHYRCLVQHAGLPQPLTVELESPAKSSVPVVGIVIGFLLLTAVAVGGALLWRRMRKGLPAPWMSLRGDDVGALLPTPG

B1: insulin-Fc fusion protein of SEQ ID NO: 38 (Fc fusion)
chain: FVNQHLCGSHLVEALELVCGERGFHYGGGGGGSGGGGGIVEQCCTSTCSLDQLENYCGGGGGQGGGGQGGGGQGGGGGDCPKCPPPEMLGGPSIFIFPPKPKDTLSISRTPEVTCLVVDLGPDDSDVQITWFVDNTQVYTAKTSPREEQFNSTYRVVSVLPILHQDWLKGKEFKCKVNSKSLPSPIERTISKDKGQPHEPQVYVLPPAQEELSRNKVSVTCLIEGFYPSDIAVEWEITGQPEPENNYRTTPPQLDSDGTYFLYSRLSVDRSRWQRGNTYTCSVSHEALHSHHTQKSLTQSPG
notes: homodimer
EC50 (biotinylated canine FcRn): 1.55 µg/mL
IC50 (human insulin receptor [1]): 2400 nM
binding result [2]: binds

B2: insulin-Fc fusion protein of SEQ ID NO: 40 (Fc fusion)
chain: B1 chain with E16A, N151S
notes: homodimer
EC50 (biotinylated canine FcRn): 8.16 µg/mL
IC50 (human insulin receptor [1]): 4640 nM
fold less Fc(gamma) receptor activity than SEQ ID NO: 38 [2]: ~4 fold less

B5: insulin-Fc fusion protein of SEQ ID NO: 112 (Fc fusion)
chain: FVNQHLCGSDLVEALALVCGERGFFYTDPTGGGPRRGIVEQCCHSICSLYQLENYCNGGGGSGGGGGEGPKCPVPEIPGAPSVFIFPPKPKDTLSISRTPEVTCLVVDLGPDDSNVQITWFVDNTEMHTAKTRPREEQFNSTYRVVSVLPILHQDWLKGKEFKCKVNSKSLPSAMERTISKAKGQPHEPQVYVLPPTQEELSENKVSVTCLIKGFHPPDIAVEWEITGQPEPENNYQTTPPQLDSDGTYFLYSRLSVDRSHWQRGNTYTCSVSHEALHSHHTQKSLTQSPG
notes: Feline IgG2 Fc, B16A insulin polypeptide; homodimer
IC50 (human insulin receptor [3]): 53 nM
IC50 (human insulin receptor [4]): 53 nM

B8: insulin-Fc fusion protein of SEQ ID NO: 60 (Fc fusion)
chain: FVNQHLCGSDLVEALALVCGERGFFYTDPTGGGPRRGIVEQCCHSICSLYQLENYCNGGGGAGGGGDCPKCPAPEMLGGPSVFIFPPKPKDTLLIARTPEVTCVVVDLDPEDPEVQISWFVDGKQMQTAKTQPREEQFSGTYRVVSVLPIGHQDWLKGKQFTCKVNNKALPSPIERTISKARGQAHQPSVYVLPPSREELSKNTVSLTCLIKDFFPPDIDVEWQSNGQQEPESKYRTTPPQLDEDGSYFLYSKLSVDKSRWQRGDTFICAVMHEALHNHYTQESLSHSPG
notes: homodimer; also called cNg-S; cNg-NB139-S
fold lower Fc(gamma)RI binding than SEQ ID NO: 52 [2]: 4 fold lower
Ratio to SEQ ID NO: 52 [5]: 0.24 ratio

B9: insulin-Fc fusion protein of SEQ ID NO: 62 (Fc fusion)
chain: B8 chain with S139D
notes: homodimer; also called cNg-D; cNg-NB139-D
fold of Fc(gamma) receptor binding activity against SEQ ID NO: 60 and SEQ ID NO: 64 [2]: ~2 fold
Ratio to SEQ ID NO: 52 [5]: 0.44 ratio

The next lines start with the values.

IC50 (human insulin receptor [3]): 62 nM
IC50 (human insulin receptor [4]): 62 nM
B3: insulin-Fc fusion protein of SEQ ID NO: 108 (Fc fusion)
chain: FVNQHLCGSDLVEALALVCGERGFFYTDPTGGGPRRGIVEQCCHSICSLYQLENYCNGGGGSGGGGDCPKCPPPEMLGGPSIFIFPPKPKDTLSISRTPEVTCLVVDLGPDDSDVQITWFVDNTQVYTAKTSPREEQFNSTYRVVSVLPILHQDWLKGKEFKCKVNSKSLPSPIERTISKDKGQPHEPQVYVLPPAQEELSRNKVSVTCLIEGFYPSDIAVEWEITGQPEPENNYRTTPPQLDSDGTYFLYSRLSVDRSRWQRGNTYTCSVSHEALHSHHTQKSLTQSPG
notes: about 49% homodimer

EC50 (biotinylated canine FcRn): 3.11 µg/mL
IC50 (human insulin receptor [4]): 2540 nM
B4: insulin-Fc fusion protein of SEQ ID NO: 122 (Fc fusion)
chain: FVNQHLCGSHLVEALELVCGERGFHYGGGGGGSGGGGGIVEQCCTSTCSLDQLENYCGGGGGQGGGGQGGGGQGGGGGGEGPKCPVPEIPGAPSVFIFPPKPKDTLSISRTPEVTCLVVDLGPDDSNVQITWFVDNTEMHTAKTRPREEQFNSTYRVVSVLPILHQDWLKGKEFKCKVNSKSLPSAMERTISKAKGQPHEPQVYVLPPTQEELSENKVSVTCLIKGFHPPDIAVEWEITGQPEPENNYQTTPPQLDSDGTYFLYSRLSVDRSHWQRGNTYTCSVSHEALHSHHTQKSLTQSPG
notes: homodimer

IC50 (human insulin receptor [3]): 41 nM
B6: insulin-Fc fusion protein of SEQ ID NO: 110 (Fc fusion)
chain: B5 chain with S62A
notes: homodimer

IC50 (human insulin receptor [3]): 22 nM
IC50 (human insulin receptor [4]): 22 nM
B7: insulin-Fc fusion protein of SEQ ID NO: 106 (Fc fusion)
chain: B5 chain with A16Y
notes: homodimer
